Patent US20130004513A1

Target: Human CD4 on CD4+CD25+ regulatory T cells of healthy donors (human) (UniProt P01730)
Assay: cell-based or functional assay

% Inh2: 7% | % Inh3: 5.2% | Avg. % inhibition: 5.1%
Substance: Negative control (antibody)
